{"source": "patent US20250188162A1", "about": "“INHIBITOR OF INTERLEUKIN-1 RECEPTOR TYPE 1 FOR USE IN THE TREATMENT OF CANCER” (Buzzard Pharmaceuticals AB, priority 2022, published 2025)", "molecules": {"B1": {"name": "Isunakinra: protein chimera of IL-1β and IL-1 receptor antagonists comprising P05 (SEQ ID NO: 5); binds IL1R1 (protein)", "chain": "APVRSLNCRIWDVNQKTFYLRNNQLVAGYLQGPNVNLEEKFSMSFVQGEESNDKIPVALGLKEKNLYLSCVLKDDKPTLQLESVDPKNYPKKKMEKRFVFNKIEINNKLEFESAQFPNWFLCTAMEADQPVSLTNMPDEGVMVTKFYMQFVSS", "modifications": "P05"}}, "key": {"[1]": {"details": "133 mg/h for 72 hours; cited from earlier work"}, "NF-κB": {"tested_on": "NF-κB", "assay": "NF-κB reporter bioluminescence of NGL RAW264.7 macrophages pre-treated with Cu-CPT22 and exposed to VCAN", "assay_type": "cell-based, murine", "details": "1 nM recombinant VCAN, bioluminescence at 24 hours"}, "RAW264.7 macrophages": {"tested_on": "RAW264.7 macrophages", "assay": "MTT reduction of RAW264.7 macrophages treated with Cu-CPT22", "assay_type": "cell-based, murine", "details": "MTT reduction at 72 hours post-LPS/VCAN"}, "Kras-mutant cancer cells [2]": {"tested_on": "Kras-mutant cancer cells", "assay": "malignant pleural effusion model of κB.luc mice with pleural LLC cells treated with Cu-CPT22", "assay_type": "in vivo", "details": "daily intraperitoneal 20 mg/kg, 14 days post-pleural LLC cells"}, "KrasMUT tumors": {"tested_on": "KrasMUT tumors", "assay": "subcutaneous tumor growth in mice with established tumors treated with Isunakinra", "assay_type": "in vivo", "details": "daily intraperitoneal 20 or 50 mg/Kg from 10-17 days post tumor cells; FULA1, LLC, MC38 (Kras-mutant) vs B16F10, PANO2 (WT)", "method": "(§1) FIG. 6. Pharmacologic abolition of non-oncogene addiction of Kras-mutant tumors to IL-1β. […] (A) FVB (n=10) and C57BL/6 (n=45) mice received subcutaneous injections of 5×10^6 FULA1 (FVB mice) or LLC, MC38, B16F10, or PANO2 (C57BL/6 mice) cells that carry G12C, G13R, Q61R, or wild-type (WT) Kras alleles. Mice were allowed 10-17 days for tumor take, and were treated with daily intraperitoneal phosphate buffered saline (PBS) or 20 mg/Kg (LLC cells) or 50 mg/Kg (all other cells) Isunakinra until control tumor volume reached 1 cm3 (PANO2 cells) or 2 cm3 (all other cell lines). Shown are therapy (Tx) start, mouse numbers (n), tumor volume as mean (circles) and SD (bars), two-way ANOVA probability (P) for treatment effects, and average Isunakinra effect at the last time-points (%). ** and ***: P<0.01 and P<0.001, respectively, Bonferroni post-tests. (B-D) C57BL/6 mice (n=48) received intrapleural 2×10^5 LLC cells stably expressing a κB.LUC reporter (NGL), were allowed five days for tumor take, and received daily intraperitoneal PBS or 20 mg/Kg Isunakinra. Mice were sacrificed when morbid (n=17/treatment) or at day 14 post-LLC cells (n=7/treatment), after 1 mg intravenous D-luciferin and bioluminescence imaging. […]"}, "Kras-mutant cancer cells [3]": {"tested_on": "Kras-mutant cancer cells", "assay": "intrapleural LLC κB.LUC reporter malignant pleural effusion model treated with Isunakinra", "assay_type": "in vivo, mice", "details": "daily intraperitoneal 20 mg/Kg from day 5 post-intrapleural LLC cells", "method": "as §1"}}}
{"molecule": "IL-1RA: IL-1 receptor antagonist protein, natural antagonist of IL-1α and IL-1β", "values": [{"measurement": "clinical or laboratory values", "setting": "[1]", "value": "no change in clinical or laboratory values"}]}
{"molecule": "CCCCCCOC(=O)c1cc(O)c(=O)c2c(O)c(O)c(OC)cc2c1", "note": "[Cu-CPT22, 3,4,6-Trihydroxy-2-methoxy-5-oxo-5H-benzocycloheptene-8-carboxylic acid hexyl ester]", "values": [{"measurement": "concentration range inhibiting VCAN induced NF-κB activation", "setting": "NF-κB", "value": "low micromolar range"}, {"measurement": "concentration range inhibiting cellular survival", "setting": "RAW264.7 macrophages", "value": "low micromolar range"}, {"measurement": "VCAN-induced myeloid NF-κB activation and MPE", "setting": "Kras-mutant cancer cells [2]", "value": "blocks versican (VCAN)-induced myeloid NF-κB activation and MPE of Kras-mutant cancer cells in vivo"}, {"measurement": "tumor growth in vivo", "setting": "Kras-mutant cancer cells [2]", "value": "blocked tumor growth in vivo at clinically relevant concentrations"}]}
{"molecule": "B1", "values": [{"measurement": "s.c. tumor growth (tumor volume)", "setting": "KrasMUT tumors", "value": "specifically inhibited s.c. growth of KrasMUT tumors"}, {"measurement": "NF-κB activation in KrasMUT cancer cells in vivo (chest bioluminescence)", "setting": "Kras-mutant cancer cells [3]", "value": "limited nuclear factor (NF)-κB activation in KrasMUT cancer cells in vivo"}, {"measurement": "malignant pleural effusions (MPE)", "setting": "Kras-mutant cancer cells [3]", "value": "limits nuclear factor (NF)-κB activation and malignant pleural effusions (MPE) from Kras-mutant cancer cells"}]}
